According to FireProtDB (doi:10.1021/bi972642d):

B1: Protein S100-G, P02633 (parent)
chain: MSAKKSPEELKGIFEKYAAKEGDPNQLSKEELKLLLQTEFPSLLKGPSTLDELFEELDKNGDGEVSFEEFQVLVKKISQ

Variants of: B1
Conditions: Bos taurus; pH 7; 25 °C; Urea; CD; Potassium phosphate 10 mM; structure 1IGV; whole UniProt chain shown

MSAKKSPEELKGIFEKYAAKEGDPNQLSKEELKLLLQTEFPSLLKGPSTLDELFEELDKNGDGEVSFEEAQVLVKKISQ [F70A]
ddG of mutation (higher = less stable): 4.97 kcal/mol | denaturant m value: 0.79 kcal/mol/M | denaturant midpoint (higher = more stable): 2 M | unfolding free energy: 1.58 kcal/mol

MSAKKSPEELKGIFEKYAAKEGDPNQLSKEELKLLLQTEFPSLLKGPSTLDELFEELDKNGDGEVSFEEWQVLVKKISQ [F70W]
ddG of mutation (higher = less stable): 2.34 kcal/mol | denaturant m value: 0.69 kcal/mol/M | denaturant midpoint (higher = more stable): 6.1 M | unfolding free energy: 4.21 kcal/mol

MSAKKSPEEVKGIFEKYAAKEGDPNQLSKEELKLLLQTEFPSLLKGPSTLDELFEELDKNGDGEVSFEEFQVLVKKISQ [L10V]
ddG of mutation (higher = less stable): 2.2 kcal/mol | denaturant m value: 1 kcal/mol/M | denaturant midpoint (higher = more stable): 4.3 M | unfolding free energy: 4.35 kcal/mol

MSAKKSPEELKGIAEKYAAKEGDPNQLSKEELKLLLQTEFPSLLKGPSTLDELFEELDKNGDGEVSFEEFQVLVKKISQ [F14A]
ddG of mutation (higher = less stable): 4.83 kcal/mol | denaturant m value: 0.88 kcal/mol/M | denaturant midpoint (higher = more stable): 2 M | unfolding free energy: 1.72 kcal/mol

MSAKKSPEELKGIFEKYAAKEGDPNQLSKEELKLLLQTEFPSLLKGPSTLDELFEELDKNGDGEVSFEEFQVLVKKVSQ [I77V]
ddG of mutation (higher = less stable): 1.53 kcal/mol | denaturant m value: 1.15 kcal/mol/M | denaturant midpoint (higher = more stable): 4.4 M | unfolding free energy: 5.02 kcal/mol

MSAKKSPEELKGIFEKYAAKEGDPNQGSKEELKLLLQTEFPSLLKGPSTLDELFEELDKNGDGEVSFEEFQVLVKKISQ [L27G]
ddG of mutation (higher = less stable): 4.28 kcal/mol | denaturant m value: 1.22 kcal/mol/M | denaturant midpoint (higher = more stable): 1.8 M | unfolding free energy: 2.27 kcal/mol

MSAKKSPEELKGIFEKYAAKEGDPNQASKEELKLLLQTEFPSLLKGPSTLDELFEELDKNGDGEVSFEEFQVLVKKISQ [L27A]
ddG of mutation (higher = less stable): 3.73 kcal/mol | denaturant m value: 1.03 kcal/mol/M | denaturant midpoint (higher = more stable): 2.7 M | unfolding free energy: 2.82 kcal/mol

MSAKKSPEELKGIFEKYAAKEGDPNQLSKEELKLLLQTEFPSLLKGPSTLDELFEELDKNGDGEGSFEEFQVLVKKISQ [V65G]
ddG of mutation (higher = less stable): 4.35 kcal/mol | denaturant m value: 0.86 kcal/mol/M | denaturant midpoint (higher = more stable): 2.6 M | unfolding free energy: 2.2 kcal/mol

MSAKKSPEELKGIFEKYAAKEGDPNQLSKEELKLLLQTEFPSLLKGPSTLDELFEELDKNGDGEASFEEFQVLVKKISQ [V65A]
ddG of mutation (higher = less stable): 3.78 kcal/mol | denaturant m value: 0.81 kcal/mol/M | denaturant midpoint (higher = more stable): 3.4 M | unfolding free energy: 2.77 kcal/mol

MSAKKSPEELKGIFEKYAAKEGDPNQLSKEEAKLLLQTEFPSLLKGPSTLDELFEELDKNGDGEVSFEEFQVLVKKISQ [L32A]
ddG of mutation (higher = less stable): 2.7 kcal/mol | denaturant m value: 1.03 kcal/mol/M | denaturant midpoint (higher = more stable): 3.8 M | unfolding free energy: 3.85 kcal/mol

MSAKKSPEELKGIFEKYAAKEGDPNQLSKEELKLLLQTEFPSLLKGPSTLDELFEELDKNGDGEVSFEEFQVLLKKISQ [V74L]
ddG of mutation (higher = less stable): 1.2 kcal/mol | denaturant m value: 0.81 kcal/mol/M | denaturant midpoint (higher = more stable): 6.6 M | unfolding free energy: 5.35 kcal/mol
